Assay results: publication doi:10.1101/2024.06.13.598777, “Acetylation of the yeast Hsp40 chaperone protein Ydj1 fine-tunes proteostasis and translational fidelity” (bioRxiv, 2024)

B1: His-tagged Ydj1 wild-type, biotinylated (natural protein, yeast, UniProt P25491 1-409, looked up)
chain: MVKETKFYDILGVPVTATDVEIKKAYRKCALKYHPDKNPSEEAAEKFKEASAAYEILSDPEKRDIYDQFGEDGLSGAGGAGGFPGGGFGFGDDIFSQFFGAGGAQRPRGPQRGKDIKHEISASLEELYKGRTAKLALNKQILCKECEGRGGKKGAVKKCTSCNGQGIKFVTRQMGPMIQRFQTECDVCHGTGDIIDPKDRCKSCNGKKVENERKILEVHVEPGMKDGQRIVFKGEADQAPDVIPGDVVFIVSERPHKSFKRDGDDLVYEAEIDLLTAIAGGEFALEHVSGDWLKVGIVPGEVIAPGMRKVIEGKGMPIPKYGGYGNLIIKFTIKFPENHFTSEENLKKLEEILPPRIVPAIPKKATVDECVLADFDPAKYNRTRASRGGANYDSDEEEQGGEGVQCASQ
modifications: biotin (labeled with a 1.5-fold excess of NHS-PEG4-Biotin)
notes: Ydj1, yeast Hsp40; YDJ1 gene PCR amplified from yeast genomic DNA into pRSETA; A fragment lacking the J-domain (delta J) co-purifies with the recombinant protein; also called Ydj1-biotin; HIS-Ydj1; source: E. coli Rosetta (DE3), purified (Ni-sepharose, Superdex 200)
B2: His-tagged Ydj1 K23Q, biotinylated (natural protein, yeast, UniProt P25491 1-409, looked up)
chain: MVKETKFYDILGVPVTATDVEIQKAYRKCALKYHPDKNPSEEAAEKFKEASAAYEILSDPEKRDIYDQFGEDGLSGAGGAGGFPGGGFGFGDDIFSQFFGAGGAQRPRGPQRGKDIKHEISASLEELYKGRTAKLALNKQILCKECEGRGGKKGAVKKCTSCNGQGIKFVTRQMGPMIQRFQTECDVCHGTGDIIDPKDRCKSCNGKKVENERKILEVHVEPGMKDGQRIVFKGEADQAPDVIPGDVVFIVSERPHKSFKRDGDDLVYEAEIDLLTAIAGGEFALEHVSGDWLKVGIVPGEVIAPGMRKVIEGKGMPIPKYGGYGNLIIKFTIKFPENHFTSEENLKKLEEILPPRIVPAIPKKATVDECVLADFDPAKYNRTRASRGGANYDSDEEEQGGEGVQCASQ
modifications: biotin (labeled with a 1.5-fold excess of NHS-PEG4-Biotin)
notes: Ydj1, yeast Hsp40, acetyl-mimic mutant; Same construct as m5 with the mutation; source: E. coli Rosetta (DE3), purified (Ni-sepharose, Superdex 200)
B3: His-tagged Ydj1 K23R, biotinylated (natural protein, yeast, UniProt P25491 1-409, looked up)
chain: MVKETKFYDILGVPVTATDVEIRKAYRKCALKYHPDKNPSEEAAEKFKEASAAYEILSDPEKRDIYDQFGEDGLSGAGGAGGFPGGGFGFGDDIFSQFFGAGGAQRPRGPQRGKDIKHEISASLEELYKGRTAKLALNKQILCKECEGRGGKKGAVKKCTSCNGQGIKFVTRQMGPMIQRFQTECDVCHGTGDIIDPKDRCKSCNGKKVENERKILEVHVEPGMKDGQRIVFKGEADQAPDVIPGDVVFIVSERPHKSFKRDGDDLVYEAEIDLLTAIAGGEFALEHVSGDWLKVGIVPGEVIAPGMRKVIEGKGMPIPKYGGYGNLIIKFTIKFPENHFTSEENLKKLEEILPPRIVPAIPKKATVDECVLADFDPAKYNRTRASRGGANYDSDEEEQGGEGVQCASQ
modifications: biotin (labeled with a 1.5-fold excess of NHS-PEG4-Biotin)
notes: Same construct as m5 with the mutation; source: E. coli Rosetta (DE3), purified (Ni-sepharose, Superdex 200)
B4: His-tagged Ydj1 K37R, biotinylated (natural protein, yeast, UniProt P25491 1-409, looked up)
chain: MVKETKFYDILGVPVTATDVEIKKAYRKCALKYHPDRNPSEEAAEKFKEASAAYEILSDPEKRDIYDQFGEDGLSGAGGAGGFPGGGFGFGDDIFSQFFGAGGAQRPRGPQRGKDIKHEISASLEELYKGRTAKLALNKQILCKECEGRGGKKGAVKKCTSCNGQGIKFVTRQMGPMIQRFQTECDVCHGTGDIIDPKDRCKSCNGKKVENERKILEVHVEPGMKDGQRIVFKGEADQAPDVIPGDVVFIVSERPHKSFKRDGDDLVYEAEIDLLTAIAGGEFALEHVSGDWLKVGIVPGEVIAPGMRKVIEGKGMPIPKYGGYGNLIIKFTIKFPENHFTSEENLKKLEEILPPRIVPAIPKKATVDECVLADFDPAKYNRTRASRGGANYDSDEEEQGGEGVQCASQ
modifications: biotin (labeled with a 1.5-fold excess of NHS-PEG4-Biotin)
notes: as for B3

Biological target: T1, Ssa1 (purified) (yeast, UniProt P10591 1-642)
T1 construct: Ssa1, yeast Hsp70; also called Hsp70; source: isolated as previously described [51]
T1 sequence (P10591 whole entry): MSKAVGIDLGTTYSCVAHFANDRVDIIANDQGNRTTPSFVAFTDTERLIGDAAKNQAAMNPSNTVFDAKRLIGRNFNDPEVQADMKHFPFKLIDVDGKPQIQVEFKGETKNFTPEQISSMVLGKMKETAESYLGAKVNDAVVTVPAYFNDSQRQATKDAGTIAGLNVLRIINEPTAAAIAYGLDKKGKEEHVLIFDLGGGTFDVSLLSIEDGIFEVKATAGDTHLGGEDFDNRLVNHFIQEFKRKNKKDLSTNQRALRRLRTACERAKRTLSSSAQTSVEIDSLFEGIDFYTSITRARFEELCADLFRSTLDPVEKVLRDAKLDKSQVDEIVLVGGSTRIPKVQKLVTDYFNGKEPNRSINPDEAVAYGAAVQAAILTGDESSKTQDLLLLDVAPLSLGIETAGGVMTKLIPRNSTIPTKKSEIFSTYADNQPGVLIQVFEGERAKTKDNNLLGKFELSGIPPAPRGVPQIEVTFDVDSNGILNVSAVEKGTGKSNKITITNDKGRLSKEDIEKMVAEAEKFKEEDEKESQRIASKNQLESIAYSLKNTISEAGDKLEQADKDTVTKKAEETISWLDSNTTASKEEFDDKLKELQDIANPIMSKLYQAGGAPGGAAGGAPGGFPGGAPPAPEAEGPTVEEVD
Assay: BLI; Ydj1-biotin (5 ug/ml) on streptavidin biosensors, Ssa1 1 uM in solution, 23 °C, 25 mM Hepes pH 7.5, 50 mM KCl, 2 mM DTT, 5 mM MgCl2, 0.5 mM ATP, 0.02% Tween-20; Octet R4; reference sensor subtracted
Conditions: both partners purified

Binding result, binds:
B1
B2
B3
B4
